System: MS2 coat protein
Assay: apparent KD of MS2 coat protein; designed switch direction (-1 OFF switch, 1 ON switch): -1; higher = weaker reporter binding
How it was run: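 Designed RNA switches sharing common flanks were transcribed on Illumina chips by stalled E. coli RNA polymerase. They were titrated with SNAP-549-labelled MS2 coat protein, from 0.7 or 1.5 nM doubling to 3 µM, in Tris-HCl pH 7.5 buffer with KCl, MgCl2, BSA, DTT, tRNA and Tween-20. Titrations ran without input, with 200 uM small-molecule ligand, or with an oligonucleotide input. The apparent KD of each design is the median over its clusters, after curve-fitting of normalised cluster fluorescence.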

[1] = Eterna round: R95, input ligand: FMN 200 uM
[2] = Eterna round: R95, input ligand: microRNA oligo, concentration not stated
[3] = Eterna round: R95, input ligand: none
[4] = input ligand: microRNA oligo, concentration not stated

Sequence: GAGUAGGUAGGAUAUACGAUAAUAUAGGGUAGAUAUAUAACACAUGAGGAUCACCCAUGUAGAAGGACCAUGAG [Mat - Exclusion 2 - Mod of my Tesla design - D62] (puzzle: Exclusion 2)
- apparent KD of MS2 coat protein [1]: 118 nM
- apparent KD of MS2 coat protein [2]: 37.1 nM
- apparent KD of MS2 coat protein [3]: 35.1 nM

Sequence: GCUGCACAUGUAGGAUAUCUGCACGUUUAGUGCAGAGAAGGACAUGAGGAUCACCCAUGUAGAUCAGCAGCAAUUAAUUUAAUU [ENG1/6-A3] (Eterna round: R96, puzzle: Exclusion NG 1)
- apparent KD of MS2 coat protein (input ligand: FMN 200 uM): 809 nM
- apparent KD of MS2 coat protein [4]: 479 nM
- apparent KD of MS2 coat protein (input ligand: none): 473 nM

Sequence: CCCAGACUAGGAUAUACAAGCCGUGGCGAGGUGGGCCUGGGACAUGAGGAUCACCCAUGUAGAAGGAGUAGGUC [Eternabot (Original) Solution 31] (Eterna round: R97, puzzle: Exclusion 2)
- apparent KD of MS2 coat protein (input ligand: FMN 200 uM): 127 nM
- apparent KD of MS2 coat protein (input ligand: none): 136 nM

Sequence: CCUUGACAUGAGGAUCACCCAUGUGAGGAUAUAGAAUACAUCAUACACUGACCUCCUUCUAGAAGGCACAUCUC [1986#2] (Eterna round: R97, puzzle: Exclusion 1)
- apparent KD of MS2 coat protein (input ligand: FMN 200 uM): 14.1 nM
- apparent KD of MS2 coat protein (input ligand: none): 15.3 nM

Sequence: GUGUAGUCAGGAUAUACAUAGGAAGAGAAGAGAAGAGAAGGACAUGAGGAUCACCCAUGUAGAAGGGACAGUGU [Excluse me!! 5 - Jieux - Exclusion 2] (puzzle: Exclusion 2)
- apparent KD of MS2 coat protein [2]: 43.6 nM

Sequence: UUUAUGUCAGGAUAUGAGUAGUAGAACAAUAGUACUACUACUCAGAAGGGACAUGAGGAUCACCCAUGUUCCUC [Fiskers Ex 4 Super stable 44 mod 20] (puzzle: Exclusion 4)
- apparent KD of MS2 coat protein [2]: 16.7 nM

Sequence: GAUCAACAUGAGGAUCACCCAUGUCAGGAUAUGAUACUAUGUACUUCGGUACAUAGUAUCAGAAGGGACAGAUC [Ex1-3: 1] (puzzle: Exclusion 1)
- apparent KD of MS2 coat protein [2]: 101 nM

Sequence: AGCUAAAUAGGAUAUGCCCGGGAUAACAUGAGGAUCACCCAUGUGACCGAUUCAUGUCCUGCAGAAGGGUUUGGGA [Mod of ViennaUCT 6 - Jieux - Exclusion 5] (Eterna round: R97, puzzle: Exclusion 5)
- apparent KD of MS2 coat protein (input ligand: FMN 200 uM): 14.3 nM
- apparent KD of MS2 coat protein (input ligand: none): 13.5 nM

Sequence: GUUUUCAGACGGAGAUCCUACAUGAGGAUCACCCAUGUCUCUCAAGCUAAUUGCUCGUCUUAUUCUCCUCUGUUCUC [Elimod 39 - Jieux - Sensor, turn-off variant 1] (Eterna round: R97, puzzle: Sensor, turn-off variant 1)
- apparent KD of MS2 coat protein (input ligand: FMN 200 uM): 35.6 nM
- apparent KD of MS2 coat protein (input ligand: none): 41 nM

Sequence: CAGGUCUGAAAGGAUAUCCACGCCUGCGGGCCAGGAGAAGGUUCGACUUGAGGAUCACCCAAGUGCCGAGUCCA [Ervezaar] (Eterna round: R97, puzzle: Exclusion 6)
- apparent KD of MS2 coat protein (input ligand: FMN 200 uM): 33.2 nM
- apparent KD of MS2 coat protein (input ligand: none): 20.6 nM

Sequence: CACCCUGAUGUCAGGAUAUGCGCGUCGCGCCUCGAGCAGAAGGGACAUGAGGAUCACCCAUGUUGUCUCUUGGG [Orisvedixe] (puzzle: Brourd's mod of Exclusion 4)
- apparent KD of MS2 coat protein [2]: 44.5 nM

Sequence: UCAACGCAAGGAUAUACUUGCGGUGAUGUUCGAAAUCUUCUACUUGAGGAUCACCCAAGUAGAAGGUGCGGUGA [jl-ex2.4.65 ViennaUCT mod] (Eterna round: R97, puzzle: Exclusion 2)
- apparent KD of MS2 coat protein (input ligand: FMN 200 uM): 12.8 nM
- apparent KD of MS2 coat protein (input ligand: none): 12.9 nM

Sequence: GGAUCUACUGAGGAUAUUACAUCACCCGAUUGAUAAGAAGGCAGAACAUGAGGAUCACCCAUGUGGGUAGCCAA [Polaris] (Eterna round: R97, puzzle: Exclusion 6)
- apparent KD of MS2 coat protein (input ligand: FMN 200 uM): 36.9 nM
- apparent KD of MS2 coat protein (input ligand: none): 21 nM

Sequence: CUUUUGUGAGGAUAUUAGUAGUAAAUAAAUAAAAUUACUACUGAGAAGGCACAUGAGGAUCACCCAUGUUCCUC [salish99_ex4_r3_041] (puzzle: Exclusion 4)
- apparent KD of MS2 coat protein [2]: 34.6 nM

Sequence: AAUAAUAAGGAGGAUAUCGUAUCGGAAACGAUACGAGAAGGUCUAACAUGAGGAUCACCCAUGUUCCUCAAUAA [Fiskers Ex 6 - 1] (puzzle: Exclusion 6)
- apparent KD of MS2 coat protein [2]: 33.6 nM

Sequence: ACAUGAGGAUCACCCAUGUCCGGCUGGUCCGUCUCGGCUGUCGAGGAUAUAGCUUGGUGUCCGCGCUAGAAGGUGGGAGCCGGU [Aenatbe mod 70] (Eterna round: R96, puzzle: Exclusion NG 3)
- apparent KD of MS2 coat protein (input ligand: FMN 200 uM): 61 nM
- apparent KD of MS2 coat protein [4]: 40.2 nM
- apparent KD of MS2 coat protein (input ligand: none): 56.6 nM

Sequence: AAGAAGGCAGGAUAUACAAAAUAAAAGAAAAGAAAGAAAGAACAUGAGGAUCACCCAUGUAGAAGGGUCAAGAA [Sankhenre Sewadjtu] (Eterna round: R96, puzzle: Exclusion 2)
- apparent KD of MS2 coat protein (input ligand: FMN 200 uM): 52.2 nM
- apparent KD of MS2 coat protein [4]: 46.3 nM
- apparent KD of MS2 coat protein (input ligand: none): 60.7 nM

Sequence: CACAGACAUGAGGAUCACCCAUGUUAGGAUAUGGAUAGCCUGCCAAGAAUAGGCGCCUCCAGAAGGAACUGGGA [Eternabot (Original) Solution 36] (Eterna round: R97, puzzle: Exclusion 1)
- apparent KD of MS2 coat protein (input ligand: FMN 200 uM): 141 nM
- apparent KD of MS2 coat protein (input ligand: none): 61.1 nM

Sequence: AUUGUUUGAUACCUUUAAUACAUGAGGAUCACCCAUGUUAUCGAGGAUAUGUAGAAGAGAUGAGAACAGAAGGCGAAGUAAGAG [JR_ExcNG3_Sub096] (Eterna round: R96, puzzle: Exclusion NG 3)
- apparent KD of MS2 coat protein (input ligand: FMN 200 uM): 21.3 nM
- apparent KD of MS2 coat protein [4]: 11.1 nM
- apparent KD of MS2 coat protein (input ligand: none): 16.5 nM

Sequence: UAAUUUUUAGUAAGGAUAUCGGUCCCAAGGGACAACGAGAAGGUACAUGAGGAUCACCCAUGUGAUAAAAGAAU [Mod of Zala 5 - Jieux - Brourd's Mod of Exclusion 4] (Eterna round: R97, puzzle: Brourd's mod of Exclusion 4)
- apparent KD of MS2 coat protein (input ligand: FMN 200 uM): 204 nM
- apparent KD of MS2 coat protein (input ligand: none): 28.8 nM

Sequence: CAGGAUAGAGGAUAUACAUAGAUACAGAUUCGUGUGAUCCUACAUGAGGAUCACCCAUGUAGAAGGCUAUCCUG [Fiskers Ex 2 - 23] (puzzle: Exclusion 2)
- apparent KD of MS2 coat protein [2]: 210 nM

Sequence: UUUUUUGGGCAAGGAUAUCCUGUGCGGUUCCGGCUCGUGUCUGUUACAUGAGGAUCACCCAUGUGGGAGAAGGUGCCUGCGGUU [Design 85] (Eterna round: R96, puzzle: Exclusion NG 2)
- apparent KD of MS2 coat protein (input ligand: FMN 200 uM): 172 nM
- apparent KD of MS2 coat protein [4]: 31.1 nM
- apparent KD of MS2 coat protein (input ligand: none): 34.9 nM

Sequence: CCGUGGCAAGGAUAUACGUAGGAGAGGAAGGCAAGAGAAGGACAUGAGGAUCACCCAUGUAGAAGGUGCAGAUC [JR_Exclu2_Sub030] (puzzle: Exclusion 2)
- apparent KD of MS2 coat protein [2]: 48.3 nM

Sequence: UUUAAUUUUUUUUUUUUACAAGCUUUUUGCUCGUCUUAUACAUGAGGAUCACCCAUGUGAGUGGGAGAUAAAUUAUC [JMF 22] (puzzle: Sensor v3, turn-off variant 2)
- apparent KD of MS2 coat protein [1]: 98.2 nM
- apparent KD of MS2 coat protein [2]: 213 nM
- apparent KD of MS2 coat protein [3]: 170 nM

Sequence: CAUUCGCAAGGAUAUUAUUGCAGUGACAUGAGGAUCACCCAUGUGUUCGUCAUGCAUCGAUGAGAAGGUGCAAGAC [Orater] (puzzle: Exclusion 5)
- apparent KD of MS2 coat protein [1]: 29.9 nM
- apparent KD of MS2 coat protein [2]: 36.4 nM
- apparent KD of MS2 coat protein [3]: 41.2 nM

Sequence: AAGUACUACAAGCUUUGGGACAUGAGGAUCACCCAUGUUCGUCUUAUUGAUCUAGGUACGCUGACGUACCUAGAUCU [Mat - Sensor v3 - turn-off var 1 - JL Mod - D8] (puzzle: Sensor v3, turn-off variant 1)
- apparent KD of MS2 coat protein [1]: 16.5 nM
- apparent KD of MS2 coat protein [2]: 73.4 nM
- apparent KD of MS2 coat protein [3]: 13.2 nM

Sequence: AAGACACAUGAGGAUCACCCAUGUGAGGAUAUUUGAUGCUGAGCGUAAGCUUAGUAUCAGAGAAGGUACAUAGG [Salishxclusion 10 - Jieux - Exclusion 1] (Eterna round: R97, puzzle: Exclusion 1)
- apparent KD of MS2 coat protein (input ligand: FMN 200 uM): 105 nM
- apparent KD of MS2 coat protein (input ligand: none): 58.9 nM

Sequence: AGUAUGCGGCAGGAUAUCCAUCCGCGGUGAGGUGGAGAAGGGCUGACAUGAGGAUCACCCAUGUGCGUCCUGUA [salish99_ex6_r4_027] (Eterna round: R97, puzzle: Exclusion 6)
- apparent KD of MS2 coat protein (input ligand: FMN 200 uM): 29.4 nM
- apparent KD of MS2 coat protein (input ligand: none): 21 nM

Sequence: AGUUGGCGAGGAUAUACAUGAGGAUCACCCAUGUGAGAGAUACUAGUGAGGUCGAUGAGUAGAAGGCGCUGACA [Mat X3R4 m18] (Eterna round: R97, puzzle: Exclusion 3)
- apparent KD of MS2 coat protein (input ligand: FMN 200 uM): 186 nM
- apparent KD of MS2 coat protein (input ligand: none): 142 nM

Sequence: UUUGCAAGCUAUAGAUCCCACAUGAGGAUCACCCAUGUUGCUGCCGUGAGGUAGCAUUUAACUAUUGCUCGUCUUAU [JL TOV1 3.51] (Eterna round: R97, puzzle: Sensor, turn-off variant 1)
- apparent KD of MS2 coat protein (input ligand: FMN 200 uM): 190 nM
- apparent KD of MS2 coat protein (input ligand: none): 245 nM

Sequence: GGUACUAACACGAGAGUGUUAGUACUAUAAGCUUGUGUUACAUGAGGAUCACCCAUGUCCUCAUAAGCUCGUCUUGA [Mat - Sensor v3 - Turn-off var 2 - D90] (puzzle: Sensor v3, turn-off variant 2)
- apparent KD of MS2 coat protein [1]: 33 nM
- apparent KD of MS2 coat protein [2]: 974 nM
- apparent KD of MS2 coat protein [3]: 36.2 nM

Sequence: GGCCGUUUUCGGCCCGGGCGGGCCACAUGAGGAUCACCCAUGUAGGAUAUCGCCGGGUUUCCCGGCGAGAAGGGCAGGGCCCGC [first try] (Eterna round: R96, puzzle: Exclusion NG 3)
- apparent KD of MS2 coat protein (input ligand: FMN 200 uM): 13.4 nM
- apparent KD of MS2 coat protein [4]: 13.7 nM
- apparent KD of MS2 coat protein (input ligand: none): 17.5 nM

Sequence: GGUCUUCAAGUCAGGAUAUCGUCUAAUCGAUCUGGCGAGAAGGGACAUGAGGAUCACCCAUGUCGUCUCAUCAG [Ex4 #16] (Eterna round: R97, puzzle: Brourd's mod of Exclusion 4)
- apparent KD of MS2 coat protein (input ligand: FMN 200 uM): 22.7 nM
- apparent KD of MS2 coat protein (input ligand: none): 17.7 nM

Sequence: CCUCUGUUAGGAUAUGGCAAAGAUGAGACACACCGACAUUGUUAGAAGGGACAUGAGGAUCACCCAUGUCAGCG [Eternabot (L1) Solution 57] (Eterna round: R97, puzzle: Exclusion 4)
- apparent KD of MS2 coat protein (input ligand: FMN 200 uM): 22.8 nM
- apparent KD of MS2 coat protein (input ligand: none): 21.4 nM

— the supplement of paper PMC9170038
